From patent US6375945B1, “Adjuvant compositions for vaccines” (SmithKline Beecham Biologicals s.a., priority 1997, dated 2002) come the findings set out here.

The nature of series [1]: Enhancement of the effect of the QS21/MPL adjuvant by other cytokines.
In another series the test system is P1983 cells. The experiment in a line: IL12 dose curve: CTL activity in mice receiving peptide P198 + DQS21/3D-MPL + various doses of IL12. It counts as in vivo, DBA/2 mice. The settings on record: with P198 peptide and DQS21/3D-MPL. Here is the method:
DBA/2 mice were injected s.c. in the two footpads with 50 μg of P198 peptide ([…]), corresponding to the antigen expressed by the P198 TUM—clone (Sibille et al., J. Exp. Med., 1990: 172, 35-45), mixed with the DQS21/3D-MPL adjuvant (adjuvant) 100 μl final. […] This murine IL12 was purified from the supernatant of transfected P1HTR cells as described in Gajewski et al. (J. Immunol. 1995, 154: 5637-5648). […] On day 16, the mice were bled and stimulation of blood lymphocytes was performed by mixing 3×10^5 Ficoll purified lymphocytes with […] stimulating cells (100 Gy) and 2×10^6 irradiated normal syngeneic spleen cells (30 Gy) as feeder cells. The stimulating cells were P1983 cells, an azaguanine-resistant variant derived from the P198 TUM-clone. The cells were incubated in 48-well plates in a final volume of 0,8 ml MLTC medium described in Warnier et al. (Int. J. Cancer, 1996, 67, 303-310). Seven days later, CTL activity was measured in a standard chromium-release assay using 1,000 5^1Cr-labelled targets. […] Specific lytic units were calculated by subtracting the values obtained with the negative targets (usually less than 0,3 LU) from those obtained with the positive target. Mice were scored as ± when the LU detected were comprised between 0,1 and 1; + when LU were comprised between 1 and 10; and ++ above 10 LU. […]

For series [2] the following is noted: mouse, in vivo.

As to GM-CSF: cytokine, in series [1], the “enhancement of the effect of the QS21/MPL adjuvant” value is given as “unable to enhance”. Turning to IL-6: cytokine, the “enhancement of the effect of the QS21/MPL adjuvant” value in series [1] is listed as “unable to enhance”.

B1: IL12: murine IL12 purified from the supernatant of transfected P1HTR cells; heterodimeric cytokine (protein, UniProt P43431 23-215; P43432 23-335, looked up)
Interleukin-12 subunit alpha: RVIPVSGPARCLSQSRNLLKTTDDMVKTAREKLKHYSCTAEDIDHEDITRDQTSTLKTCLPLELHKNESCLATRETSSTTRGSCLPPQKTSLMMTLCLGSIYEDLKMYQTEFQAINAALQNHNHQQIILDKGMLVAIDELMQSLNHNGETLRQKPPVGEADPYRVKMKLCILLHAFSTRVVTINRVMGYLSSA
Interleukin-12 subunit beta: MWELEKDVYVVEVDWTPDAPGETVNLTCDTPEEDDITWTSDQRHGVIGSGKTLTITVKEFLDAGQYTCHKGGETLSHSHLLLHKKENGIWSTEILKNFKNKTFLKCEAPNYSGRFTCSWLVQRNMDLKFNIKSSSSSPDSRAVTCGMASLSAEKVTLDQRDYEKYSVSCQEDVTCPTAEETLPIELALEARQQNKYENYSTSFFIRDIIKPDPPKNLQMKPLKNSQVEVSWEYPDSWSTPHSYFSLKFFVRIQRKKEKMKETEEGCNQKGAFLVEKTSTEVQCKGGNVCVQAQDRYYNSSCSKWACVPCRVRS
With B1, the figures for the “effect of IL12 on CTL activity” value in the series on P1983 cells (IL12 dose/mouse/day 10 ng (100U)) and in the series on P1983 cells (IL12 only 30 ng (so in the source)) were “nearly fully maintained” and “disappeared”, respectively. Also, the systemic toxicity entry in series [2] is recorded as “largely reduced but not totally absent”.

B2: IL-7: cytokine (protein, UniProt P13232 26-177, looked up)
Interleukin-7: DCDIEGKDGKQYESVLMVSIDQLLDSMKEIGSNCLNNEFNFFKRHICDANKEGMFLFRAARKLRQFLKMNSTGDFDLHLLKVSEGTTILLNCTGQVKGRKPAALGEAQPTKSLEENKSLKEQKKLNDLCFLKRLLQEIKTCWNKILMGTKEH
For the molecule B2, the “enhancement of the effect of the QS21/MPL adjuvant” value in series [1] is “unable to enhance”.

B3: IFN-γ: cytokine (protein, UniProt P01579 24-161, looked up)
Interferon gamma: QDPYVKEAENLKKYFNAGHSDVADNGTLFLGILKNWKEESDRKIMQSQIVSFYFKLFKNFKDDQSIQKSVETIKEDMNVKFFNSNKKKRDDFEKLTNYSVTDLNVQRKAIHELIQVMAELSPAAKTGKRKRSQMLFRG
On to B3, for which, in series [1], the “enhancement of the effect of the QS21/MPL adjuvant” value was “unable to enhance”.
